Experiment [1] has as its target T1, human CD23 (low affinity receptor for IgE, FceRII/CD23) on 8866 cells (human, UniProt P06734 1-321).
T1 construct: whole, on cells; Target of the first step cell ELISA (glutaraldehyde-fixed 8866 cells); also called cellular CD23; FCEL
T1 sequence (looked up): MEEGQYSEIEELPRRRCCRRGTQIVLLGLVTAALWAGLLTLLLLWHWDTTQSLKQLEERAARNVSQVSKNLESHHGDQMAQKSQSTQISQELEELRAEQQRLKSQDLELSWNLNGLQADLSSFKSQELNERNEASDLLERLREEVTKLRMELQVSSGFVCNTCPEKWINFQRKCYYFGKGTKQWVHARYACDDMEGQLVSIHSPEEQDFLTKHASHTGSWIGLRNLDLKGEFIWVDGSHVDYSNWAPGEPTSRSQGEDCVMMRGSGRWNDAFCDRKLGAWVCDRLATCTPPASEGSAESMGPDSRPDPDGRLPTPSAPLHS
The experiment can be described thus: cell ELISA on fixed 8866 cells, hybridoma supernatant. The procedure:
The first step of the ELISA comprised the transferral of fifty microliters of supernatant from each well to ninety-six well plates which had previously been coated with 10⁵ 8866 cells (CD23 positive cell line) per well. These plates were made by first coating the plates with 50 μl of aqueous solution containing twenty μg/ml Poly L-Lysine (Sigma Catalog #P1399, MW 150,000-300,000) for thirty minutes at room temperature. The remaining solution was removed (“flicked out”) and the plates left to dry. Once dry, fifty μl of 8866 cells in PBS were transferred and spun at 600 g for five minutes. The 8866 cells were covalently bound to the plate by adding fifty μl 0.5% glutaraldehyde (Sigma Catalog #G6257) in phosphate buffered saline (PBS) for 15 minutes. The glutaraldehyde was removed (flicked out) and the plates blocked with one hundred fifty μl 100 mM glycine (Sigma Catalog #G-2879) in 0.1% BSA-PBS. […] The presence of the HRPO was detected by a color development after the addition of a TMB reagent (Kirkegaard & Perry, Gaithersburg, Md., Catalog #50-76-02 and 50-65-02), 100 μl/well. […] Optical density (OD) was measured at […] on a spectrophotometer (Titertek Multiscan). The OD values greater than two times the background were scored as positive.
Background: An ELISA detects its analyte on a solid surface through an enzyme-linked reagent.

Experiment [2] concerns the target T1, human CD23 (low affinity receptor for …). The experiment in a line: cell ELISA on 8866 cells.

B1: primate anti-human CD23 monoclonal antibody 6G5 (antibody, V domains shown)
VH: QLQLQESGPGVVKPSETLSLTCAVSGGSVSSSNWWTWIRQPPGKGLEWIGRISGSGGATNYNPSLKSRVIISQDTSKNQFSLNLNSVTAADTAVYYCARDWAQIAGTTLGFWGQGVLVTVSS
VL: QSAPTQPPSVSGSPGQSVTISCTGTSDDVGGYNYVSWYQHHPGKAPKLMIYDVAKRASGVSDRFSGSKSGNTASLTISGLQAEDEADYYCCSYTTSSTLLFGRGTRLTVLG
notes: Monoclonal antibody from a cynomolgus macaque heterohybridoma; also called primate 6G5
Consider B1, for which the binding result in experiment [1] is recorded as “binds”.

B2: primate anti-human CD23 monoclonal antibody 5E8 (antibody, V domains shown)
VH: EVQLVESGGGLAKPGGSLRLSCAASGFRFTFNNYYMDWVRQAPGQGLEWVSRISSSGDPTWYADSVKGRFTISRENANNTLFLQMNSLRAEDTAVYYCASLTTGSDSWGQGVLVTVSS
VL: DIQMTQSPSSLSASVGDRVTITCRASQDIRYYLNWYQQKPGKAPKLLIYVASSLQSGVPSRFSGSGSGTEFTLTVSSLQPEDFATYYCLQVYSTPRTFGQGTKVEIK
modifications: N-linked oligosaccharide at the asparagine of the heavy chain variable region glycosylation site (Kabat 75)
notes: Monoclonal antibody from a cynomolgus macaque heterohybridoma; also called primate 5E8
Take B2: the binding result in experiment [2] was “binds”.

Values taken from patent US20050054833A1 (published 2005).
